Measured values as given in ChEMBL document CHEMBL5244221, “Synthesis and structure-activity relationship studies of cruzain and rhodesain inhibitors” (Eur J Med Chem, 2018).

Columns and labels:
[1] = substrate: CCCC[C@@H](C(=O)Nc1ccc2c(C)c(CC(=O)O)c(=O)oc2c1)n1cc([C@@](C)(NCc2ccc(F)cc2)C(C)C)nn1; assay: (§1) Binding affinity to Trypanosoma cruzi Cruzain assessed as Kcat/Km
[2] = substrate: CCCC[C@@H](C(=O)Nc1ccc2c(C)c(CC(=O)O)c(=O)oc2c1)n1cc([C@@](C)(NCc2ccc(OC)cc2)C(C)C)nn1; assay: as §1
[3] = substrate: CCCC[C@@H](C(=O)Nc1ccc2c(C)c(CC(=O)O)c(=O)oc2c1)n1cc([C@@](C)(NCc2ccc3ncccc3c2)C(C)C)nn1; assay: as §1
[4] = substrate: CCCC[C@@H](C(=O)Nc1ccc2c(C)c(CC(=O)O)c(=O)oc2c1)n1cc([C@@](C)(NCc2ccc3ncsc3c2)C(C)C)nn1; assay: as §1
[5] = substrate: CCCC[C@@H](C(=O)Nc1ccc2c(C)c(CC(=O)O)c(=O)oc2c1)n1cc([C@@](C)(NCc2ccccc2)C(C)C)nn1; assay: as §1

B1: Cruzipain (Trypanosoma cruzi), P25779 (protein)
chain: MSGWARALLLAAVLVVMACLVPAATASLHAEETLTSQFAEFKQKHGRVYESAAEEAFRLSVFRENLFLARLHAAANPHATFGVTPFSDLTREEFRSRYHNGAAHFAAAQERARVPVKVEVVGAPAAVDWRARGAVTAVKDQGQCGSCWAFSAIGNVECQWFLAGHPLTNLSEQMLVSCDKTDSGCSGGLMNNAFEWIVQENNGAVYTEDSYPYASGEGISPPCTTSGHTVGATITGHVELPQDEAQIAAWLAVNGPVAVAVDASSWMTYTGGVMTSCVSEQLDHGVLLVGYNDSAAVPYWIIKNSWTTQWGEEGYIRIAKGSNQCLVKEEASSAVVGGPGPTPEPTTTTTTSAPGPSPSYFVQMSCTDAACIVGCENVTLPTGQCLLTTSGVSAIVTCGAETLTEEVFLTSTHCSGPSVRSSVPLNKCNRLLRGSVEFFCGSSSSGRLADVDRQRRHQPYHSRHRRL
Q: Which results are given for B1?
A: kcat/Km [1]: 4; kcat/Km [2]: 6.5; kcat/Km [3]: 19; kcat/Km [4]: 19; kcat/Km [5]: 3.5
